Source: US20130137748A1 (ONCOTHERAPY SCIENCE, published 2013)

T1: 3×FLAG-WHSC1 (Wolf-Hirschhorn syndrome candidate-1, FLAG-tagged) (human, UniProt O96028 1-1365)
T1 construct: Expressed in 293T cells by transfection; also called FLAG-tagged WHSC1; pCAGGS-n3FH-WHSC1; not shown: 3×FLAG tag from the pCAGGS-n3FH / n3FC vector
T1 sequence: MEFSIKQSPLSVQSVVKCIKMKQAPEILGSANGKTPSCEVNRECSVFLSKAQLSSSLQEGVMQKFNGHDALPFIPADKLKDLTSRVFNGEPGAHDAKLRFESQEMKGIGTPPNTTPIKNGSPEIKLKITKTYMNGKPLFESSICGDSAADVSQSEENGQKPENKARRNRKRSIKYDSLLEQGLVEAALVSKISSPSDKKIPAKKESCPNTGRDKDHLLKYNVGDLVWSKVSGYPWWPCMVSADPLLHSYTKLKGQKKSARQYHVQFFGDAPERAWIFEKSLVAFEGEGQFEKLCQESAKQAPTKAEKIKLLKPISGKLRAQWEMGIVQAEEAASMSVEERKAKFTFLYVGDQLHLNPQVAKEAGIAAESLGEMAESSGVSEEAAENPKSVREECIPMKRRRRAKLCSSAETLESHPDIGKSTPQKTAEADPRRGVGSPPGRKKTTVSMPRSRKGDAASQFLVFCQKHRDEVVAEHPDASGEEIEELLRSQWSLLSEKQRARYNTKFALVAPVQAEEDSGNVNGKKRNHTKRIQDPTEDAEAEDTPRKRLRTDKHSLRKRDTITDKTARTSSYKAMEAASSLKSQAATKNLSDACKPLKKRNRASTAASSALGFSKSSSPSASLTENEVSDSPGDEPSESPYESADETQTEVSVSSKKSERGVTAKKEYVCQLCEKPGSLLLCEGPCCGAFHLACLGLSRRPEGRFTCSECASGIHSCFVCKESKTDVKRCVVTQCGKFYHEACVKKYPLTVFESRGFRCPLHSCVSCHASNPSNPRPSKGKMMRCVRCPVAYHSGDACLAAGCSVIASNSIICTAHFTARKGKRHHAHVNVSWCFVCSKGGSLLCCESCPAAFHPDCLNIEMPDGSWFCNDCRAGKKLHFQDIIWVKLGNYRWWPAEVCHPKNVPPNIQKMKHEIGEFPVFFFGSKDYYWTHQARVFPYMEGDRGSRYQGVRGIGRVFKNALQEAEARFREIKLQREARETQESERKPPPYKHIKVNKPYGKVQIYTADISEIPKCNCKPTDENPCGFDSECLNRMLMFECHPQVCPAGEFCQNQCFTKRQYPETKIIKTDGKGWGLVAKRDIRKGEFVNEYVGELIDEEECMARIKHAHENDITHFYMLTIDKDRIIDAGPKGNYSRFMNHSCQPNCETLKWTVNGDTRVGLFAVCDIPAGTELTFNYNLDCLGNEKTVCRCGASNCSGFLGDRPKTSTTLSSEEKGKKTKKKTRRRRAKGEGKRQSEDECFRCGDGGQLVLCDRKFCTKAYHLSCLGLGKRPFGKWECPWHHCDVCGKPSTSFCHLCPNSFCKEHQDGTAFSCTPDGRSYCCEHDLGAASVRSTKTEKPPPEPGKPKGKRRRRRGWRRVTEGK

T2: beta-catenin
T2 chain: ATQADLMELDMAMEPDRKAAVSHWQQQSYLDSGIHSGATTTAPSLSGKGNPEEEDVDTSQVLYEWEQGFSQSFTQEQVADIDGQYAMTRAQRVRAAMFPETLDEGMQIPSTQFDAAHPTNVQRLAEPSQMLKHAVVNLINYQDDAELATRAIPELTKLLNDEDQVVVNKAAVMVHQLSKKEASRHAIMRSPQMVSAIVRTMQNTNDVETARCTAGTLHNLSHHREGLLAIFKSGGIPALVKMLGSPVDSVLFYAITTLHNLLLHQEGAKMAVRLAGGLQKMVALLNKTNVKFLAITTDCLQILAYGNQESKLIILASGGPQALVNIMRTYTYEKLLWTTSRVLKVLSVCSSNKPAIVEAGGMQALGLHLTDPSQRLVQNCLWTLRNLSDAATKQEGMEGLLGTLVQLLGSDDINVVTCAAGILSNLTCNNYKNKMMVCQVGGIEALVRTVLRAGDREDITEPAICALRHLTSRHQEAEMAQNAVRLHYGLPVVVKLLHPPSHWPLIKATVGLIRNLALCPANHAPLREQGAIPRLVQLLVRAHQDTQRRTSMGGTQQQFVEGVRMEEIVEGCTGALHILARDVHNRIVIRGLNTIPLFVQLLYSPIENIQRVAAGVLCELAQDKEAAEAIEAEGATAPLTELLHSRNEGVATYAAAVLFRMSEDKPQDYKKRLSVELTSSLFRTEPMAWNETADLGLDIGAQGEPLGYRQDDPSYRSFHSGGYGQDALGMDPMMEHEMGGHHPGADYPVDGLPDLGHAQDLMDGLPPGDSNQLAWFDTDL

B1: HA-beta-catenin (other)
chain: MATQADLMELDMAMEPDRKAAVSHWQQQSYLDSGIHSGATTTAPSLSGKGNPEEEDVDTSQVLYEWEQGFSQSFTQEQVADIDGQYAMTRAQRVRAAMFPETLDEGMQIPSTQFDAAHPTNVQRLAEPSQMLKHAVVNLINYQDDAELATRAIPELTKLLNDEDQVVVNKAAVMVHQLSKKEASRHAIMRSPQMVSAIVRTMQNTNDVETARCTAGTLHNLSHHREGLLAIFKSGGIPALVKMLGSPVDSVLFYAITTLHNLLLHQEGAKMAVRLAGGLQKMVALLNKTNVKFLAITTDCLQILAYGNQESKLIILASGGPQALVNIMRTYTYEKLLWTTSRVLKVLSVCSSNKPAIVEAGGMQALGLHLTDPSQRLVQNCLWTLRNLSDAATKQEGMEGLLGTLVQLLGSDDINVVTCAAGILSNLTCNNYKNKMMVCQVGGIEALVRTVLRAGDREDITEPAICALRHLTSRHQEAEMAQNAVRLHYGLPVVVKLLHPPSHWPLIKATVGLIRNLALCPANHAPLREQGAIPRLVQLLVRAHQDTQRRTSMGGTQQQFVEGVRMEEIVEGCTGALHILARDVHNRIVIRGLNTIPLFVQLLYSPIENIQRVAAGVLCELAQDKEAAEAIEAEGATAPLTELLHSRNEGVATYAAAVLFRMSEDKPQDYKKRLSVELTSSLFRTEPMAWNETADLGLDIGAQGEPLGYRQDDPSYRSFHSGGYGQDALGMDPMMEHEMGGHHPGADYPVDGLPDLGHAQDLMDGLPPGDSNQLAWFDTDL
notes: Co-transfected with 3×FLAG-WHSC1 into 293T cells and precipitated with anti-HA agarose from nuclear and cytoplasmic fractions; also called HA-tagged beta-catenin; not shown: HA tag
B2: WHSC1 (expressed from the pCAGGS-WHSC1 vector) (protein)
chain: T1 sequence

Legend:
[1] = molecular target: T1, 3×FLAG-WHSC1 (Wolf-Hirschhorn syndrome …); experiment: anti-HA immunoprecipitation from nuclear and cytoplasmic fractions of 293T cells co-transfected with HA-beta-catenin and 3×FLAG-WHSC1, then immunoblot
Protocol: [FIG. 5B-D](B) Silver staining pattern of interacting proteins with WHSC1. pCAGGS-n3FH-WHSC1 vectors were transfected into 293T cells. After 48 h, interacting protein partners of WHSC1 were enriched by anti-FLAG immunoprecipitation, separated by SDS-PAGE and silver stained. The different bands compared with a control lane were cut out and identified by mass spectrometry. Western blot was performed to confirm the expression of FLAG-WHSC1 using anti-FLAG antibody. (C) Immunoprecipitants from lysates of 293T cells using anti-FLAG M2 agarose (SIGMA) were immunoblotted with anti-FLAG (WHSC1), IQGAP1, TIAM1, AKT2 and beta-catenin antibodies. (D). HA-beta-catenin and 3×FLAG-WHSC1 vectores were transfected into 293T cells, and cell lysates were fractionated by NE-PER nuclear and cytoplasmic ex-traction kit (Thermo Sciecntific). Immunoprecipitants from fractionated lysates using anti-HA agarose (SIGMA) were immunoblotted with anti-FLAG and HA antibodies. UHRF1 was used as a marker of a nuclear protein, and Rho A was used a marker of a cytoplasmic protein.

beta-catenin = molecular target: T2, beta-catenin

| Binder | binding result [1] | in vitro methyltransferase assay (beta-catenin) |
| --- | --- | --- |
| B1 | binds | – |
| B2 | – | no positive signals were observed (data not shown) |
